Measured values published in patent publication US20160137696A1 (Bristol-Myers Squibb, published 2016).
Starred links: 1 amine or outer side, 2 acyl side, 3 side chain; linkers in the order of their positions; H or OH if unused. Positions of bridges follow the written chain, without caps; N, C: chain ends. Non-standard residues stand in square brackets, D forms with d. Groups on a side chain read outwards from the residue. Primed or numbered codes have the meaning given here. No end group written: not given here. *: point of attachment. PEG8′ = PEG8 unit (23-azido-3,6,9,12,15,18,21-heptaoxatricosyl, i.e. an eight-unit PEG spacer) linking the triazole to vitamin E succinate; Pra′ = propargylglycine (built in as LPH), clicked to a 1-substituted triazol-4-yl-alanine, O=C([C@H](Cc1cn([*:3])nn1)N[*:1])[*:2]; PEG11′ = PEG11 spacer (eleven ethylene glycol units, 3,6,...,33-undecaoxa) between the triazole and gamma-Glu-C18 diacid; PEG6′ = PEG6 spacer (17-azido-3,6,9,12,15-pentaoxaheptadecyl) linking the triazole to vitamin E succinate; X1 = (S)‑3‑carboxy‑3‑(15-carboxypentadecanoylamino)propyl, O=C(O)CCCCCCCCCCCCCCC(=O)N[C@@H](CC*)C(=O)O; Phe(4-OMe) = p-methoxyphenylalanine (O-methyl-L-tyrosine), COc1ccc(C[C@H](N[*:1])C(=O)[*:2])cc1; Pra″ = its azide, alkyne or alkene has reacted where a group follows in round brackets; Pra(3) = propargylglycine, clicked to an azide to give a triazolyl-alanine; triazole = 1,2,3-triazole formed by click of the Pra alkyne with the azide; Trp(1-CH2CO) = O=C([C@H](Cc1cn(CC(=O)[*:3])c2ccccc12)N[*:1])[*:2]; Phe(3,4,5-F3) = N[C@@H](Cc1cc(F)c(F)c(F)c1)C(=O)O; C18 diacid = O=C(O)CCCCCCCCCCCCCCCCC(=O)*; γGlu = O=C(O)[C@H](CCC(=O)[*:2])N[*:1]; Aha = [N-]=[N+]=NCC[C@H](N)C(=O)O; Hyp = O=C(O)[C@@H]1C[C@@H](O)CN1; NMeF = CN[C@@H](Cc1ccccc1)C(=O)O; F3Phe = trifluoro-phenylalanine; NMeE = CN[C@@H](CCC(=O)O)C(=O)O; NMeNle = CCCC[C@H](NC)C(=O)O; Suc = O=C(CCC(=O)[*:2])[*:1]; triazole″ = not defined here; Bzt = benzothienylalanine; Pip = O=C(O)[C@@H]1CCCCN1; NMeA = CN[C@@H](C)C(=O)O; Orn = NCCC[C@H](N)C(=O)O; Pra = C#CC[C@H](N)C(=O)O; Dab = NCC[C@H](N)C(=O)O; Dap = NC[C@H](N)C(=O)O; Sar = CNCC(=O)O

B1: INT-1400D (peptide)
peptide: {CH2CO}-Y[NMeA]DPHK[Hyp]WK[Trp(1-CH2CO)][NMeNle][NMeNle]ECG[Pra]G
modifications: thioether N-14; not fully specified (C-terminus); printed as ClAc-Tyr-mAla-Asp-Pro-His-Lys-Hyp-Trp-Lys-“Trp”-mNle-mNle-Glu-Cys-Gly-[(S)-propargylglycine]-Gly
B2: INT-1400H (peptide)
peptide: {CH2CO}-Y[NMeA]DPHQ[Hyp]WSW[NMeNle][NMeNle]ECG[Pra]
modifications: thioether N-14; not fully specified (C-terminus); printed as ClAc-Tyr-mAla-Asp-Pro-His-Gln-Hyp-Trp-Ser-Trp-mNle-mNle-Glu-Cys-Gly-[(S)-propargylglycine]
notes: also called Intermediate 1400H
B3: Example 13154 (peptide)
peptide: {CH2CO}-[Phe(4-OMe)][Pip]NPHQ[Hyp]W[Dab][Trp(1-CH2CO)][NMeNle][NMeNle]LCG[Dap]([γGlu-C18 diacid])
modifications: thioether N-14
B4: INT-1400A (peptide)
peptide: {CH2CO}-Y[NMeA]DPHK[Hyp]WKW[NMeNle][NMeNle]ECG[Pra]G
modifications: thioether N-14; not fully specified (C-terminus); printed as ClAc-Tyr-mAla-Asp-Pro-His-Lys-Hyp-Trp-Lys-Trp-mNle-mNle-Glu-Cys-Gly-[(S)-propargylglycine]-Gly
notes: also called Intermediate 1400A
B5: Example 14056 (peptide)
peptide: YADPHKPWKWXXECGXD
modifications: as m107 (INT 1400B); Pra triazole-linked to vitamin E succinate 5-azidopentylamide
B6: INT-1400B (peptide)
peptide: {CH2CO}-Y[NMeA]DPHK[Hyp]WKW[NMeNle][NMeNle]ECG[Pra]D
modifications: thioether N-14; not fully specified (C-terminus); printed as ClAc-Tyr-mAla-Asp-Pro-His-Lys-Hyp-Trp-Lys-Trp-mNle-mNle-Glu-Cys-Gly-[(S)-propargylglycine]-Asp
notes: also called Intermediate 1400B
B7: INT-1400E (peptide)
peptide: {CH2CO}-Y[NMeA]DPHK[Hyp]WK[Trp(1-CH2CO)][NMeNle][NMeNle]ECG[Pra]D
modifications: thioether N-14; not fully specified (C-terminus); printed as ClAc-Tyr-mAla-Asp-Pro-His-Lys-Hyp-Trp-Lys-“Trp”-mNle-mNle-Glu-Cys-Gly-[(S)-propargylglycine]-Asp
notes: also called Intermediate 1400E
B8: Example 14057 (peptide)
peptide: {CH2CO}-Y[NMeA]DPHK[Hyp]WKW[NMeNle][NMeNle]ECG[Pra(3)]([triazole″-PEG8′-Suc-vitamin E])D
modifications: thioether N-14; reading uncertain
B9: INT-1400C (peptide)
peptide: {CH2CO}-Y[NMeA]DPHQ[Hyp]WSW[NMeNle][NMeNle]ECG[Pra]G
modifications: thioether N-14; not fully specified (C-terminus); printed as ClAc-Tyr-mAla-Asp-Pro-His-Gln-Hyp-Trp-Ser-Trp-mNle-mNle-Glu-Cys-Gly-[(S)-propargylglycine]-Gly
notes: also called Intermediate 1400C
B10: Example 14064 (peptide)
peptide: {CH2CO}-Y[NMeA]DPHK[Hyp]WKW[NMeNle][NMeNle]ECG[Pra(3)]G
modifications: thioether N-14; not fully specified (residue 16, C-terminus)
B11: INT-1400F (peptide)
peptide: {CH2CO}-Y[NMeA]DPHK[Hyp]WKW[NMeNle][NMeNle]ECG[Pra]
modifications: thioether N-14; not fully specified (C-terminus); printed as ClAc-Tyr-mAla-Asp-Pro-His-Lys-Hyp-Trp-Lys-Trp-mNle-mNle-Glu-Cys-Gly-[(S)-propargylglycine]
notes: also called Intermediate 1400F
B12: Example 14058 (peptide)
peptide: {CH2CO}-Y[NMeA]NP[Dap]L[Hyp]WS[Bzt][NMeNle][NMeNle]RCG[Pra]
modifications: thioether N-14; not fully specified (residue 16)
B13: INT-1300C (peptide)
peptide: {CH2CO}-Y[NMeA]NP[Dap]L[Hyp]WS[Bzt][NMeNle][NMeNle]RCGG[Aha]
modifications: thioether N-14
B14: Example 14066 (peptide)
peptide: {CH2CO}-Y[NMeA]NP[Dap]L[Hyp]WSW[NMeNle][NMeNle]RCG[Pra′]([triazole-X1])
modifications: thioether N-14
B15: INT-1400G (peptide)
peptide: {CH2CO}-Y[NMeA]NP[Dap]L[Hyp]WSW[NMeNle][NMeNle]RCG[Pra]
modifications: thioether N-14; not fully specified (C-terminus); printed as ClAc-Tyr-mAla-Asn-Pro-Dap-Leu-Hyp-Trp-Ser-Trp-mNle-mNle-Arg-Cys-Gly-[(S)-propargylglycine]
notes: also called Intermediate 1400G
B16: Example 14092 (peptide)
peptide: {CH2CO}-Y[NMeA]DPHK[Hyp]WK[Trp(1-CH2CO)][NMeNle][NMeNle]ECG[Pra″]([triazole-PEG11′-γGlu-C18 diacid])
modifications: thioether N-14
B17: Example 14054 (peptide)
peptide: YADPHQPWSWXXECGXG
modifications: as m108 (INT 1400C); Pra triazole-linked to vitamin E succinate 5-azidopentylamide
B18: INT-1400K (peptide)
peptide: {CH2CO}-[F3Phe][NMeF][NMeNle][dP]DV[NMeF][Orn][dP]WYLCG[Pra]
modifications: thioether N-13; not fully specified (C-terminus); printed as ClAc-F3Phe-mPhe-mNle-dPro-Asp-Val-mPhe-Orn-dPro-Trp-Tyr-Leu-Cys-Gly-[(S)-propargylglycine]
notes: also called Intermediate 1400K
B19: Example 3619 (peptide)
peptide: {CH2CO}-F[NMeF][NMeNle][Sar]DV[NMeF]Y[NMeE]WYLCGGGK-NH2
modifications: thioether N-13
SMILES: CCCC[C@H]1C(=O)N(C)CC(=O)N[C@@H](CC(=O)O)C(=O)N[C@@H](C(C)C)C(=O)N(C)[C@@H](Cc2ccccc2)C(=O)N[C@@H](Cc2ccc(O)cc2)C(=O)N(C)[C@@H](CCC(=O)O)C(=O)N[C@@H](Cc2c[nH]c3ccccc23)C(=O)N[C@@H](Cc2ccc(O)cc2)C(=O)N[C@@H](CC(C)C)C(=O)N[C@H](C(=O)NCC(=O)NCC(=O)NCC(=O)N[C@@H](CCCCN)C(N)=O)CSCC(=O)N[C@@H](Cc2ccccc2)C(=O)N(C)[C@@H](Cc2ccccc2)C(=O)N1C
notes: order read from the list of couplings, which runs from C- to N-terminus
B20: Example 3214 (peptide)
peptide: {CH2CO}-[Phe(3,4,5-F3)][NMeF][NMeNle]PDV[NMeF]Y[NMeE]WYLCGGGK-NH2
modifications: thioether N-13; not fully specified (residue 4); printed as ClAc-Phe(3,4,5-tri-F)-[N-Me]Phe-[N-Me]Nle-cis-(D)-Pro(4-OH)-Asp-Val-[N-Me]Phe-Tyr-[N-Me]Glu-Trp-Tyr-Leu-Cys-Gly-Gly-Gly-Lys
notes: as for B19
B21: Example 14051 (peptide)
peptide: YADPHKPWKWXXECGXG
modifications: as m106 (INT 1400A); Pra triazole-linked to vitamin E succinate 5-azidopentylamide
B22: Example 14053 (peptide)
peptide: {CH2CO}-Y[NMeA]DPHK[Hyp]WKW[NMeNle][NMeNle]ECG[Pra(3)]([triazole″-PEG6′-Suc-vitamin E])G
modifications: thioether N-14; reading uncertain
B23: INT-1300Y (peptide)
peptide: {CH2CO}-Y[NMeA]DPHK[Hyp]WK[Trp(1-CH2CO)][NMeNle][NMeNle]ECG[Pra]-OH
modifications: thioether N-14
SMILES: C#CC[C@H](NC(=O)CNC(=O)[C@@H]1CSCC(=O)N[C@@H](Cc2ccc(O)cc2)C(=O)N(C)[C@@H](C)C(=O)N[C@@H](CC(=O)O)C(=O)N2CCC[C@H]2C(=O)N[C@@H](Cc2c[nH]cn2)C(=O)N[C@@H](CCCCN)C(=O)N2C[C@H](O)C[C@H]2C(=O)N[C@@H](Cc2c[nH]c3ccccc23)C(=O)N[C@@H](CCCCN)C(=O)N[C@@H](Cc2cn(CC(=O)O)c3ccccc23)C(=O)N(C)[C@@H](CCCC)C(=O)N(C)[C@@H](CCCC)C(=O)N[C@@H](CCC(=O)O)C(=O)N1)C(=O)O
notes: also called Intermediate 1300Y

What was measured:
[1] = biological target: T1, Recombinant Human PD-L1-TVMV-His (human, UniProt Q9NZQ7 19-239); assay: HTRF vs PD-1-Ig; C = IC50 0.0003-0.0099 µM
T1 construct: expressed in HEK293T cells; also called PD-L1-His; hPD-L1(19-239)-TVMV-His
Experimental: (§1) Homogenous Time-Resolved Fluorescence (HTRF) Assays of Binding of Soluble PD-1 to Soluble PD-L1. Soluble PD-1 and soluble PD-L1 refers to proteins with carboxyl-end truncations that remove the transmembrane-spanning regions and are fused to heterologous sequences, specifically the Fc portion of the human immunoglobuling G sequence (Ig) or the hexahistidine epitope tag (His). All binding studies were performed in an HTRF assay buffer consisting of dPBS supplemented with 0.1% (w/v) bovine serum albumin and 0.05% (v/v) Tween-20. For the PD-1-Ig/PD-L1-His binding assay, inhibitors were pre-incubated with PD-L1-His (10 nM final) for 15 m in 4 μl of assay buffer, followed by addition of PD-1-Ig (20 nM final) in 1 μl of assay buffer and further incubation for 15 m. PD-L1 fusion proteins from either human, cynomologous macaques, mouse, or other species were used. HTRF detection was achieved using europium crypate-labeled anti-Ig monoclonal antibody (1 nM final) and allophycocyanin (APC) labeled anti-His monoclonal antibody (20 nM final). Antibodies were diluted in HTRF detection buffer and 5 μl was dispensed on top of binding reaction. The reaction was allowed to equilibrate for 30 minutes and signal (665 nm/620 nm ratio) was obtained using an EnVision fluorometer. Additional binding assays were established between PD-I-Ig/PD-L2-His (20 and 5 nM, respectively), CD80-His/PD-L1-Ig (100 and 10 nM, respectively) and CD80-His/CTLA4-Ig (10 and 5 nM, respectively). Binding/competition studies between biotinylated Compound No. 71 and human PD-L1-His were performed as follows. Macrocyclic peptide inhibitors were pre-incubated with PD-L1-His (10 nM final) for 60 minutes in 4 μl of assay buffer followed by addition of biotinylated Compound No. 71 (0.5 nM final) in 1 μl of assay buffer. Binding was allowed to equilibrate for 30 minutes followed by addition of europium crypated labeled Streptavidin (2.5 pM final) and APC-labeled anti-His (20 nM final) in 5 μl of HTRF buffer. The reaction was allowed to equilibrate for 30 m and signal (665 nm/620 nm ratio) was obtained using an EnVision fluorometer.

[2] = biological target: T1, Recombinant Human PD-L1-TVMV-His; assay: HTRF vs PD-1-Ig; A = IC50 0.10-1.6 µM
Experimental: as §1

T1 sequence (Q9NZQ7 other isoform, or with tags, fused parts or gaps limits assumed): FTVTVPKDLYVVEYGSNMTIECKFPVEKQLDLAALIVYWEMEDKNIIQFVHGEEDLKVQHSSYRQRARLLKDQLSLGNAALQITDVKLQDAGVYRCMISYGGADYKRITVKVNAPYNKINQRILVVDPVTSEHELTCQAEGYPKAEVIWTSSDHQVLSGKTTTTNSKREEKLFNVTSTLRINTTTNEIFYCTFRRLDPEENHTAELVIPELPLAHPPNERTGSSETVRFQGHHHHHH

Row | Binder | IC50 [1] [nM] | IC50 [2] [nM]
1 | B1 | 0.3 to 9.9 | 
2 | B2 | 0.3 to 9.9 | 
3 | B3 | 0.3 to 9.9 | 
4 | B4 | 0.3 to 9.9 | 
5 | B5 |  | 100 to 1600
6 | B6 | 0.3 to 9.9 | 
7 | B7 | 0.3 to 9.9 | 
8 | B8 |  | 100 to 1600
9 | B9 | 0.3 to 9.9 | 
10 | B10 | 0.3 to 9.9 | 
11 | B11 | 0.3 to 9.9 | 
12 | B12 |  | 100 to 1600
13 | B13 | 0.3 to 9.9 | 
14 | B14 | 0.3 to 9.9 | 
15 | B15 | 0.3 to 9.9 | 
16 | B16 | 0.3 to 9.9 | 
17 | B17 |  | 100 to 1600
18 | B18 | 0.3 to 9.9 | 
19 | B19 | 0.3 to 9.9 | 
20 | B20 | 0.3 to 9.9 | 
21 | B21 |  | 100 to 1600
22 | B22 |  | 100 to 1600
23 | B23 | 0.3 to 9.9 | 
